Data: PMC3609803, “SipB-SipC Complex Is Essential for Translocon Formation” (PLoS ONE, 2013)

Molecular target: T1, GST-SicA (Salmonella enterica serovar Typhimurium, UniProt P69066 1-165)
T1 construct: SicA, the chaperone for SipC, Salmonella enterica serovar Typhimurium; source: GST-tagged recombinant protein, purified
Assay: pull-down; purified His-SipC-N and derivatives immobilised on Ni-NTA beads, 1 hr at 4°C; GST or GST-SicA added, 2 hrs at 4°C; washed four times in PBS with 1% NP-40; blotted with anti-His and anti-GST
Conditions: both partners purified

T1 sequence (P69066 whole entry): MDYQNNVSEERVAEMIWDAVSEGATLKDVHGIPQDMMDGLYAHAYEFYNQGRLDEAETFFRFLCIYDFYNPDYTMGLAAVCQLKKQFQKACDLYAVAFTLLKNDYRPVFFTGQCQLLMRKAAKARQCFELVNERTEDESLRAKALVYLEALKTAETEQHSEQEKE

B1: His-SipC-N (domain or fragment)
chain: MLISNVGINPAAYLNNHSVENSSQTASQSVSAKDILNSIGISSSKVSDLGLSPTLSAPAPGVLTQTPGTITSFLKASIQNTDMNQDLNALANNVTTKANEVVQTQLREQQAEVGKFFDIS
notes: N-terminal region of SipC of Salmonella enterica serovar Typhimurium; also called wild-type SipC-N; source: His-tagged recombinant protein, purified
Does B1 bind?
Result: binds
